# Measurements as given in patent KR20220012826A (dated 2022).
# Like-named read-outs stand apart in the source and are kept apart here.
# B1: No. 139 항체 (Full IgG) (antibody, V domains shown)
# VH: QITLKESGPTLVKPTQTLTLTCSFSGFSLSTSGVGVGWIRQPPGKALEWLALIDWDDNKYHTTSLKTRLTISKDTSKNQVVLTMTNMDPVDTATYYCARIPGFLRYRNRYYYYGMDVWGQGTTVTVSS
# VL: ELVLTQPPSVSAAPGQKVTISCSGSSSNIGNNYVSWYQQLPGTAPKLLIYDNNKRPSGIPDRFSGSKSGTSATLGITGLQTGDEADYYCGTWDSSLSAGVFGGGTELTVL
# notes: also called CT-P59; Regdanvimab
# Experiments:
# [1] = molecular target: T1, SARS-CoV-2 spike D614, on pseudovirus (SARS-CoV-2, UniProt P0DTC2 14-1273); test: cell-based or functional assay
# SARS-CoV S1 = SARS-CoV S1 (SARS-CoV, UniProt P59594 14-667); test: Octet (BLI) specificity, Fig. 12
# MERS-CoV RBD = molecular target: T2, MERS-CoV RBD (MERS-CoV, UniProt K9N5Q8 367-606); test: Octet (BLI) specificity, Fig. 12
# T2 sequence: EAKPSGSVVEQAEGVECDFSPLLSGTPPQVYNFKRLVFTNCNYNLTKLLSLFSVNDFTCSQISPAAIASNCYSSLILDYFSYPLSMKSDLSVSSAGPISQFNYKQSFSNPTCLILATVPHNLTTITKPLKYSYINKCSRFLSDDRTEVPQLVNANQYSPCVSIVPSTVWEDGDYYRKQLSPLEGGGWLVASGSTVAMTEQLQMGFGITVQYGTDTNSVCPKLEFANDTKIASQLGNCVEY
# [2] = molecular target: T1, SARS-CoV-2 spike D614, on pseudovirus; test: cell-based or functional assay; remark: listed apart in the source
# [3] = molecular target: T1, SARS-CoV-2 spike D614, on pseudovirus; test: cell-based or functional assay; remark: listed apart in the source
binder,measurement,setting,value
B1,pseudovirus 중화능 IC50,[1],0.35 ng/mL
same,binding result,SARS-CoV S1,no binding
same,binding result,MERS-CoV RBD,no binding
same,pseudovirus 중화능 IC50,[2],0.535 ng/mL
same,pseudovirus 중화능 IC50,[3],0.378 ng/mL
